Data: article PMC11417379

Test system: pTERF1 (Clostridia bacterium (ruminant gut metagenome))
Experiment: BLI
Conditions: BLI: PBS, 0.02% Tween, pH 7.4, 25 C, 1:1 global fit; EMSA: 40 nM probe, room temperature 30 min, 6% native PAGE, buffer not stated

For pTERF1 motif probe, which Kd is on record?
The Kd was 1.87 nM.
